Assay results reported in paper PMC3916239, “Distinct DNA Binding Sites Contribute to the TCF Transcriptional Switch in C. elegans and Drosophila”.

How the values were obtained:
[1] = molecular target: T1, POP-1 (Caenorhabditis elegans, UniProt Q10666 1-438); assay: EMSA; 10 mM Tris-HCl pH 7.5, 50 mM KCl, 1 mM DTT, 5 mM MgCl2, 0.05% NP-40, 50 ug/ml poly(dI-dC), glycerol; 20 ul; 5 min on ice then 25 min room temperature; 6% native gel; conditions: protein: recombinant, tags: 6xHis
T1 sequence: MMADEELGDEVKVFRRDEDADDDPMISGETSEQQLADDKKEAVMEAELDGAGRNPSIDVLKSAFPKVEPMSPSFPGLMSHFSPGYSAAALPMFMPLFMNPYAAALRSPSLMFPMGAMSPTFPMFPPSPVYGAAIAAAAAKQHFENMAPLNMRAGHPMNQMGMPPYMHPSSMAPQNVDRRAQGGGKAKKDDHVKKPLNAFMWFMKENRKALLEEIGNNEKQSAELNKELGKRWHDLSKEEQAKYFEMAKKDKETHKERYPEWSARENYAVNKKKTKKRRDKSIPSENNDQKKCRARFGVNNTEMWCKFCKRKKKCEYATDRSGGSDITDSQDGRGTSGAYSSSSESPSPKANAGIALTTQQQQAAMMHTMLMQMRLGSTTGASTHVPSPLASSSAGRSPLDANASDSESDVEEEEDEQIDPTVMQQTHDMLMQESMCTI

[2] = molecular target: T1, POP-1; assay: competition; no competition at 200-fold excess; 10 mM Tris-HCl pH 7.5, 50 mM KCl, 1 mM DTT, 5 mM MgCl2, 0.05% NP-40, 50 ug/ml poly(dI-dC), glycerol; 20 ul; 5 min on ice then 25 min room temperature; 6% native gel; conditions: protein: recombinant; tags: 6xHis

B1: K08D12.3 long WT probe (dsDNA)
DNA 1: CTGGCACGCGGCCAACATTCGATTTTGGGACGATCGACACGTTCTGGCCACATTTTCTTTGATTTTTTCTGATTTCGCCGACTTTTTTC
DNA 2: GAAAAAAGTCGGCGAAATCAGAAAAAATCAAAGAAAATGTGGCCAGAACGTGTCGATCGTCCCAAAATCGAATGTTGGCCGCGTGCCAG
Q: Does B1 bind ([1]; label: biotin (labeled probe))?
A: binds

B2: K08D12.3 HMG mutant (dsDNA)
DNA 1: CTGGCACGCGGCCAACATTCGATTTTGGGACGATCGACACGTTCTGGCCACATTTTCTGTGCGTTTTTCTGATTTCGCCGACTTTTTTC
DNA 2: GAAAAAAGTCGGCGAAATCAGAAAAACGCACAGAAAATGTGGCCAGAACGTGTCGATCGTCCCAAAATCGAATGTTGGCCGCGTGCCAG
Q: Does B2 bind [2]?
A: no binding

B3: K08D12.3 Helper3 mutant (dsDNA)
DNA 1: CTGGCACGCGGCCAACATTCGATTTTGGGACGATCGACACGTTCTGGCCACATTTTCTTTGATTTTTTCTGATTTCTAATCAGTTTTTC
DNA 2: GAAAAACTGATTAGAAATCAGAAAAAATCAAAGAAAATGTGGCCAGAACGTGTCGATCGTCCCAAAATCGAATGTTGGCCGCGTGCCAG
Q: Does B3 bind [2]?
A: no binding

B4: ceh-22b WRE WT probe 69 bp (dsDNA)
DNA 1: TACGAGAAGCGGCGATTCAAGAGTTTCAAATAACTTCTCCACCGCCTTTTGAAGTTGCCGAAAATAGTT
DNA 2: AACTATTTTCGGCAACTTCAAAAGGCGGTGGAGAAGTTATTTGAAACTCTTGAATCGCCGCTTCTCGTA
Q: Does B4 bind ([1]; label: biotin (labeled probe))?
A: binds

B5: Y66D12A.9 probe (dsDNA)
DNA 1: TTGGCGCCGAGCACATATTTCCCATCGGAAGCTTTGAAATAGTCGAGCCCGCGGCCACTT
DNA 2: AAGTGGCCGCGGGCTCGACTATTTCAAAGCTTCCGATGGGAAATATGTGCTCGGCGCCAA
Q: Does B5 bind ([1]; label: biotin)?
A: no binding

B6: R05G6.5 probe (dsDNA)
DNA 1: CGGTCGCCGCGCCAATGTGCTTGCCTTTGAACTCTCAATTTGCTGTTGTGGCGTGAT
DNA 2: ATCACGCCACAACAGCAAATTGAGAGTTCAAAGGCAAGCACATTGGCGCGGCGACCG
Q: Does B6 bind ([1]; label: biotin)?
A: no binding

B7: psa-3 WRE WT probe 47 bp (dsDNA)
DNA 1: ACCGTTATGGCCGTGGAGGCTCTTTTGATGTGCAGCCGACAAGTACG
DNA 2: CGTACTTGTCGGCTGCACATCAAAAGAGCCTCCACGGCCATAACGGT
Q: Does B7 bind ([1]; label: biotin (labeled probe))?
A: binds
